Data taken from PMC8324831 (2021).
Changes are numbered by the printed parent chain.

B1: sybody MR4 (VHH)
VHH: QVQLVESGGGLVQAGGSLRLSCAASGFPMYAWEMAWYRQAPGKEREWVAAIRSMGVHTHYSDSVKGRFTISRDNAKNTVYLQMNSLKPEDTAVYYCNVKDFGGHQAYYDYWGQGTQVTVS
B2: sybody LR1 (VHH)
VHH: QVQLVESGGGSVQAGGSLRLSCAASGSISSITYLGWFRQAPGKEREGVAALITDSGRTYYADSVKGRFTVSLDNAKNTVYLQMNSLKPEDTALYYCAAAEWGYEWPLYYASSWYWGQGTQVTVS
B3: sybody LR5 (VHH)
VHH: B2 VHH with D54S, S55N, E100T, E104H, Y108G, Y109A, A110W, S111D, S112Y
B4: sybody SR4 (VHH)
VHH: QVQLVESGGGLVQAGGSLRLSCAASGFPVYSWNMWWYRQAPGKEREWVAAIESHGDSTRYADSVKGRFTISRDNAKNTVYLQMNSLKPEDTAVYYCYVWVGHTYYGQGTQVTVS
modifications: biotin by an amine-reactive crosslinker (only where immobilised on the SA sensor)
B5: sybody MR17 (VHH)
VHH: QVQLVESGGGLVQAGGSLRLSCAASGFPVEVWRMEWYRQAPGKEREGVAAIESYGHGTRYADSVKGRFTISRDNAKNTVYLQMNSLKPEDTAVYYCNVKDDGQLAYHYDYWGQGTQVTVS
modifications: biotin by an amine-reactive crosslinker (only where immobilised on the SA sensor)

biological target: T1, SARS-CoV-2 S-RBD with Avi-tag and deca-His tag (residues 330-531) (SARS-CoV-2, UniProt P0DTC2 330-531); test: BLI

| Binder | Kd |
| --- | --- |
| B1 | 23.3 nM |
| B2 | 47.5 nM |
| B3 | 22.8 nM |
| B4 | 14.5 nM |

biological target: T1, SARS-CoV-2 S-RBD with Avi-tag and …; test: BLI; remark: another data set of the same source

| Binder | koff |
| --- | --- |
| B1 | 0.0064 s⁻¹ |
| B2 | 0.0096 s⁻¹ |
| B3 | 0.0032 s⁻¹ |
| B5 | 0.0097 s⁻¹ |
| B4 | 0.0014 s⁻¹ |
